Consider 3 molecules from US20180282719A1 (published 2018).

Test [1] deals with T1, soluble mouse IL-31 receptor (mouse, UniProt Q8K5B1 19-499).
T1 sequence (looked up): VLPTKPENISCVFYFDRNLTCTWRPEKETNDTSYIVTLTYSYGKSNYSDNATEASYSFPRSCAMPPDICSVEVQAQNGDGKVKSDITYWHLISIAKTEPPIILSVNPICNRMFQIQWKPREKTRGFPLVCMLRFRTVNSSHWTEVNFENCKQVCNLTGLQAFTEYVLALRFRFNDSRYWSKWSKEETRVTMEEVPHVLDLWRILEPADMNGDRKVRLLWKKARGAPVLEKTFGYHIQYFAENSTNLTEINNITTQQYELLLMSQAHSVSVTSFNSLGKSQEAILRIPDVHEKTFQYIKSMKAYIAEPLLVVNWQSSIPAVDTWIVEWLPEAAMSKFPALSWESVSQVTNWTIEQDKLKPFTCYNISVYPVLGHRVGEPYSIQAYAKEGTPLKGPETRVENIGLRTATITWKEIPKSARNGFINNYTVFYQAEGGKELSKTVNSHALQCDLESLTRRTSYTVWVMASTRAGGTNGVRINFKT
As to the kind of experiment: SPR Biacore T100, antibody on protein A/G chip, soluble mouse IL-31 receptor analyte, pH 7.4, 25 C. The method, then: (§1) Kinetic analysis of antigen-antibody reactions at pH 5.5 and pH 7.4 was carried out using a Biacore T100™ surface plasmon resonance system (GE Healthcare) for the two types of antibodies prepared as mentioned above: Anti-IL31R wild type and Anti-IL31R clone 1 (buffer: DPBS(−) (pH 7.4 or pH 5.5), 150 mM NaCl, 0.01% TWEEN® 20 (polyoxyethelene sorbitan monolaurate), 0.02% NaN₃). The antibodies were bound to a sensor chip on which recomb-protein A/G (Pierce) was immobilized by amine coupling, and then the soluble mouse IL-31 receptor (prepared according to the method described in WO 2007/142325) adjusted to an appropriate concentration was injected therein as an analyte. All the measurements were carried out at 25° C. Association rate constants kₐ (1/Ms) and dissociation rate constants kd (1/s) were calculated using Biacore T100™ Evaluation Software (GE Healthcare), and dissociation constants KD (M) were calculated based on those values (Table 16). Furthermore, the ratio of affinity at pH 5.5 and pH 7.4 was calculated for each clone to evaluate the pH-dependent binding.

Test [2] deals with T1, soluble mouse IL-31 receptor. As to the kind of experiment: SPR Biacore T100, antibody on protein A/G chip, soluble mouse IL-31 receptor analyte, 25 C, ratio of pH 5.5 to pH 7.4. As to the method: as §1
For test [3] the target is unchanged. As to the kind of experiment: SPR Biacore T100, antibody on protein A/G chip, soluble mouse IL-31 receptor analyte, 25 C. The method, then:
as §1

For test [4] the target is unchanged. As to the kind of experiment: SPR Biacore T100, antibody on protein A/G chip, soluble mouse IL-31 receptor analyte, pH 5.5, 25 C. The method, then:
as §1

Test [5] addresses T2, recombinant soluble human IL-6 receptor (SR344) (human, UniProt P08887 20-344, biotinylated (sites not given) where immobilized via streptavidin or used in phage ELISA).
T2 construct: also called soluble IL-6 receptor; membrane-type IL-6 receptor (when biotinylated and immobilized on the chip)
T2 sequence (looked up): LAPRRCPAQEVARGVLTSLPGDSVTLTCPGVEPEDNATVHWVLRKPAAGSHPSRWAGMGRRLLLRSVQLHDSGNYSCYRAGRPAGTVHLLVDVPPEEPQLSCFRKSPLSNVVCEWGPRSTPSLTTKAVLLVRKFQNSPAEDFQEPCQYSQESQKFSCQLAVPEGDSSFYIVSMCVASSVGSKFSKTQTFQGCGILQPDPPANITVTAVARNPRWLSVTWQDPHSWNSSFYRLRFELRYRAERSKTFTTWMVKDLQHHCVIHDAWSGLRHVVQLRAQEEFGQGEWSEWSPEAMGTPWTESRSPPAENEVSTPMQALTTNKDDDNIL
As to the kind of experiment: SPR Biacore T100, antibody on protein A/G chip, SR344 analyte, pH 5.8, 37 C. The method, then:
(§2) Kinetic analyses of antigen-antibody reactions at pH 5.8 and pH 7.4 were carried out using a Biacore™ T100 surface plasmon resonance system (GE Healthcare) on the four antibodies: humanized PM1 antibody (WT) and H3pI/L73, CLH5/L73, and H170/L82 produced in Examples 2 and 4 (buffer: 10 mM MES (pH 7.4 or pH 5.8), 150 mM NaCl, and 0.05% TWEEN® 20 (polyoxyethelene sorbitan monolaurate)). Various antibodies were bound onto a sensor chip immobilized with recomb-protein A/G (Pierce) by amine coupling. SR344 adjusted to concentrations of 9.8 to 400 nM was injected to the chip as an analyte. […] All the measurements were carried out at 37° C. Association rate constants kₐ (1/Ms) and dissociation rate constants kd (1/s) were calculated using Biacore T100™ Evaluation Software (GE Healthcare), and dissociation constants KD (M) were calculated on the basis of those values (Table 5). Moreover, the ratio of the affinities at pH 5.8 and pH 7.4 were calculated for each clone to evaluate pH-dependent binding. All the measurements were carried out at 37° C.

In test [6] the target is T2, recombinant soluble human IL-6 receptor …. As to the kind of experiment: SPR Biacore T100, antibody on protein A/G chip, SR344 analyte, 37 C. As to the method: as §2
The target is the same in test [7]. As to the kind of experiment: SPR Biacore T100, integrated RU of SR344 bound over ten cycles, 37 C. As to the method:
The produced pH-dependent binding clones described above were analyzed using a Biacore T100™ surface plasmon resonance system (GE Healthcare) for their ability to bind to the antigen SR344 multiple times at pH 5.8 and pH 7.4. More specifically, the analysis was carried out as follows. All the measurements were carried out at 37° C. First, the sample antibodies described above were bound onto a recomb-protein A/G (Pierce)-immobilized sensor chip by amine-coupling, where the mobile phase buffer was 10 mM MES (pH 5.8), 150 mM NaCl, and 0.05% TWEEN® 20 (polyoxyethelene sorbitan monolaurate) (step 1). SR344 adjusted to a concentration of about 40 nM was injected as an analyte for 3 minutes at pH 7.4 and allowed to bind (the buffer for injected SR344 was 10 mM MES (pH 7.4), 150 mM NaCl, and 0.05% TWEEN® 20 (polyoxyethelene sorbitan monolaurate)) (step 2). Subsequently, the injection of SR344 was discontinued and a mobile phase of pH 5.8 was allowed to flow for about 70 seconds to expose the antibody/SR344 complex under acidic conditions (step 3). Ten sets of this binding (step 2)/acidity exposure (step 3) process were continuously repeated to observe the sensorgram in real-time, which is shown in FIG. 11. […] In the 10-set repetition of the binding (step 2) and acidic exposure (step 3), almost all H170/L82 and CLH5/L73 antibodies were able to bind to new antigens in each set. […]

For test [8] the target is unchanged. As to the kind of experiment: SPR Biacore T100, biotinylated SR344 on streptavidin chip (model of membrane IL-6 receptor), antibody 0.5 ug/mL as analyte, bound at pH 7.4, dissociation at pH 7.4, 37 C. The method, then:
(§3) The binding to membrane IL-6 receptor was evaluated by evaluating the binding to the IL-6 receptor immobilized onto a sensor chip. SR344 was biotinylated according to a method known to persons skilled in the art, and the biotinylated SR344 was immobilized on the sensor chip via streptavidin by utilizing the affinity between streptavidin and biotin. All the measurements were carried out at 37° C., and the mobile phase buffer contained 10 mM MES (pH 5.8), 150 mM NaCl and 0.05% TWEEN® 20 (polyoxyethelene sorbitan monolaurate). The pH-dependent binding clones were injected therein under the condition of pH 7.4 and allowed to bind to SR344 (injection sample buffer: 10 mM MES (pH 7.4), 150 mM NaCl, 0.05% TWEEN® 20 (polyoxyethelene sorbitan monolaurate)), and the pH-dependent dissociation of each clone at the mobile phase pH of 5.8 was observed (FIG. 10).
(§4) The dissociation rate […]) at pH 5.8 was calculated using Biacore T100™ Evaluation Software (GE Healthcare) by fitting only the dissociation phase at pH 5.8, where 0.5 μg/mL of the sample was bound in 10 mM MES (pH 7.4), 150 mM NaCl, and 0.05% TWEEN® 20 (polyoxyethelene sorbitan monolaurate), and dissociated in 10 mM MES (pH 5.8), 150 mM NaCl, and 0.05% TWEEN® 20 (polyoxyethelene sorbitan monolaurate). Similarly, the dissociation rate (kd(1/s)) at pH 7.4 was calculated using Biacore T100™ Evaluation Software (GE Healthcare) by fitting only the dissociation phase at pH 7.4, where 0.5 μg/mL of the sample was bound in 10 mM MES (pH 7.4), 150 mM NaCl, and 0.05% TWEEN® 20 (polyoxyethelene sorbitan monolaurate), and dissociated in 10 mM MES (pH 7.4), 150 mM NaCl, and 0.05% TWEEN® 20 (polyoxyethelene sorbitan monolaurate).

The target is the same in test [9]. As to the kind of experiment: SPR Biacore T100, antibody on protein A/G chip, SR344 analyte, pH 7.4, 37 C. As to the method:
as §2

The target is the same in test [10]. As to the kind of experiment: SPR Biacore T100, antibody on protein A/G chip, SR344 analyte, 37 C, ratio of pH 5.8 to pH 7.4. As to the method:
as §2

Test [11] has the same target. As to the kind of experiment: SPR Biacore T100, biotinylated SR344 on streptavidin chip (model of membrane IL-6 receptor), antibody 0.5 ug/mL as analyte, 37 C. As to the method: as §3, §4
For test [12] the target is unchanged. As to the kind of experiment: SPR Biacore T100, biotinylated SR344 on streptavidin chip (model of membrane IL-6 receptor), antibody 0.5 ug/mL as analyte, bound at pH 7.4, dissociation at pH 5.8, 37 C. As to the method:
as §3, §4

A value given as a limit tells only on which side of the number the result lay.

B1: Anti-IL31R wild type (antibody, human IgG1, lambda, V domains shown)
VH: not shown
VL: LPVLTQPPSVSVAPGQTARITCGGNNIGSKTVYWYQQEPGQAPVLVVYDDTDRPAGIPERFSGANSGNTATLTISRVEAGDEADYYCQVWDSSTDHGVFGGGTKLTVLG
notes: Antibody of WO 2007/142325, rebuilt and tested here; also called anti-IL-31 receptor antibody including the H chain (WT) and L chain (WT)
In test [1], B1 returned a Kd of 23 nM, a koff of 0.0034 s⁻¹ and a kon of 140000 M⁻¹ s⁻¹. Moreover, the “KD (pH 5.5)/KD (pH 7.4)” value in test [2] is 3.2.

B2: Anti-IL31R clone 1 (antibody, human IgG1, lambda, V domains shown)
VH: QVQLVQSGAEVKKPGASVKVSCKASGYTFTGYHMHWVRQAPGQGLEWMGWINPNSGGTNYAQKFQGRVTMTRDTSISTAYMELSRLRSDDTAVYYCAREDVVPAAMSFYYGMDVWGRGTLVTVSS
VL: B1 VL
notes: H chain (c1) / L chain (WT)
As to B2, the “pH-dependent binding ability relative to WT” value in [3] is about 300 fold. In [1], this molecule returned a dissociation constant Kd of 22 nM, a koff of 0.0033 s⁻¹ and a kon of 170000 M⁻¹ s⁻¹. Moreover, in [2], the “KD (pH 5.5)/KD (pH 7.4)” value worked out at 1000. For the same molecule, in test [4], the dissociation constant (Kd) was 22000 nM, the koff turned out to be 0.024 s⁻¹ and the kon turned out to be 1100 M⁻¹ s⁻¹.

B3: CLH5/L73 (antibody, IgG1, V domains shown)
VH: QVQLQESGPGLVKPSETLSLTCAVSGYSISHDHAWSWVRQPPGEGLEWIGHISYSGITNYNPHLKGRVTISRDTSKNQFSLKLSSVTAADTAAYYCARFLARITAHDHWGEGTLVTVSS
VL: DIQMTQSPSSLSASVGDSVTITCQASQHISSHLNWYQQKPGKAPELLIYYGSHLHSGVPSRFSGSGSGTDFTFTISSLEAEDAATYYCGQGNRLPYTFGQGTKVEIE
notes: expressed and purified as IgG
For the molecule B3, the figures for the Kd in test [5] and in [9] were 74 nM and 1.1 nM, respectively. Also, the koff in test [5] amounted to 0.028 s⁻¹; in test [8] it was 0.00104 s⁻¹; in test [9], 0.00079 s⁻¹; in test [12], 0.00567 s⁻¹. Moreover, the kon in [5] was 380000 M⁻¹ s⁻¹; in test [9], 710000 M⁻¹ s⁻¹. Moreover, the “pH-dependent binding (affinity ratio) relative to WT” value in test [6] was over 15 fold. Besides, in [7], the “total amount of antigen bound over ten cycles relative to WT” value was about 4 fold. For the same molecule, in test [10], the “KD (pH 5.8)/KD (pH 7.4)” value is 66.1. The “kd ratio pH 5.8/pH 7.4” value in test [11] is 5.5.
